Kd data for 1 substance are collected here from article PMC2248732.

In data set [1] the target is Hfqwt (Escherichia coli) (UniProt P0A6X3). The data set is described as follows: EMSA.
In data set [2] the target is Hfq65 (Escherichia coli) (UniProt P0A6X3). The data set is described as follows: EMSA. For orientation: In EMSA bound probe runs differently from free probe, usually more slowly.
Chain of Hfq65 (Escherichia coli) (P0A6X3 1-65): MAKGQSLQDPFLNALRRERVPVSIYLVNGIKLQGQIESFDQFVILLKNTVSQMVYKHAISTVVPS

Chain of Hfqwt (Escherichia coli) (P0A6X3 whole entry): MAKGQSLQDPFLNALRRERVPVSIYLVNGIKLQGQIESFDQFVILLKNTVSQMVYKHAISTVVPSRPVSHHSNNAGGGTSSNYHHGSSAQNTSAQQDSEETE

On to RyhB, for which the Kd came out at 0.016 µM in data set [1] and 0.035 µM in data set [2].

In general, Kd refers to the equilibrium constant for the complex coming apart. Read a high Kd as weaker binding.
